± gives the uncertainty stated by the source.
Assay: self-splicing fitness, log relative to wild type (ln ratio); higher = more splicing; Tetrahymena group I intron in knt gene, E. coli kanamycin selection, DiMSum; sequences stand for … in CUCUCU…GGAGGGAAAAGUUAUCAGGCAUGCACCUGGUAGCUAGUCUUUAAACCAAUAGAUUGCAUCGGUUUAAAAGGCAAGACCGUCAAAUUGCGGGAAAGGGGUCAACAGCCGUUCAGUACCAAGUCUCAGGGGAAACUUUGAGAUGGCCUUGCAAAGGGUAUGGUAAUAAGCUGACGGACAUGGUCCUAACCACGCAGCCAAGUCCUAAGUCAACAGAUCUUCUGUUGAUAUGGAUGCAGUUCACAGACUAAAUGUCGGUCGGGGAAGAUGUAUUCUUCUCAUAAGAUAUAGUCGGACCUCUCCUUAAUGGGAGCUAGCGGAUGAAGUGAUGCAACACUGGAGCCGCUGGGAACUAAUUUGUAUGCGAAAGUAUAUUGAUUAGUUUUGGAGUACUCGUGGUCG
Method in brief: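 Colonies from six replicate transformations of E. coli BL21(DE3) were pooled and amplicon-sequenced on an Illumina HiSeq 2500. The library placed an intron with all eight P1ex-region nucleotides randomised inside the knt kanamycin-resistance gene on pET-22b(+), and cells grew overnight at 37°C or 30°C on LB agar with or without 25 μg/mL kanamycin (plus 100 μg/mL carbenicillin, 50 μM IPTG, 0.2% rhamnose). Fitness is the DiMSum error-weighted combination of wild-type-normalised replicate fold changes, kanamycin versus none.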

Sequence | self-splicing fitness (ln) (30 °C) | self-splicing fitness (ln) (37 °C)
UCAAAGCAAUAUUACGGUAC | -3.28 ± 0.16 | -2.71 ± 0.22
UCUCAGCAAUAUUACGAUGU | -1.07 ± 0.09 | -0.224 ± 0.12
ACAAAGCAAUAUUACGCAUA | -2.12 ± 0.12 | -0.921 ± 0.11
GCUGAGCAAUAUUACGCUGG | -3.26 ± 0.31 | -2.22 ± 0.42
UAUUAGCAAUAUUACGACAG | -1.58 ± 0.18 | -0.556 ± 0.19
CCUUAGCAAUAUUACGCUGU | -3.42 ± 0.2 | -2.49 ± 0.19
AUGAAGCAAUAUUACGUUAU | -0.343 ± 0.071 | -0.555 ± 0.096
CAAGAGCAAUAUUACGACGC | – | -1.56 ± 0.32
GUCUAGCAAUAUUACGCCGC | -3.25 ± 0.38 | –
GCAAAGCAAUAUUACGUUUC | -4.41 ± 0.28 | -3.44 ± 0.23
UAUUAGCAAUAUUACGAUGU | -3.01 ± 0.23 | -1.06 ± 0.15
CACAAGCAAUAUUACGAUGG | -0.756 ± 0.045 | 0.369 ± 0.07
GCCUAGCAAUAUUACGAGCA | -2.26 ± 0.33 | -0.418 ± 0.17
GAGUAGCAAUAUUACGCAGU | -3.14 ± 0.39 | -2.03 ± 0.22
CCUGAGCAAUAUUACGUUCC | -2.52 ± 0.28 | -2.5 ± 0.42
AACUAGCAAUAUUACGAUUU | -0.0161 ± 0.059 | -0.157 ± 0.075
UUGCAGCAAUAUUACGGGUU | -3.77 ± 0.25 | -2.15 ± 0.21
CACAAGCAAUAUUACGGCCA | -1.1 ± 0.13 | -0.928 ± 0.16
AGGGAGCAAUAUUACGAUUG | -3.9 ± 0.17 | -3.41 ± 0.25
CGGUAGCAAUAUUACGCCAU | -1.58 ± 0.32 | -2.46 ± 0.39
UCUAAGCAAUAUUACGCUUG | – | -2.59 ± 0.41
CUCCAGCAAUAUUACGCGCG | -3.29 ± 0.17 | -0.928 ± 0.15
UGAUAGCAAUAUUACGUCAA | -2.44 ± 0.18 | -0.767 ± 0.16
UCUUAGCAAUAUUACGCGCG | -3.05 ± 0.25 | -1.76 ± 0.17
AACAAGCAAUAUUACGACGG | -2.3 ± 0.14 | -1.93 ± 0.12

Sequence | self-splicing fitness (ln) (30 °C) | self-splicing fitness (ln) (37 °C)
CUGCAGCAAUAUUACGCUAC | -4.2 ± 0.36 | -2.17 ± 0.16
AGGCAGCAAUAUUACGUCCC | – | 0.266 ± 0.3
GGGUAGCAAUAUUACGACAG | -2.84 ± 0.2 | -1.9 ± 0.21
GAACAGCAAUAUUACGGUCG | -1.17 ± 0.069 | -0.372 ± 0.098
CAAAAGCAAUAUUACGUAAU | -3.57 ± 0.15 | -3.04 ± 0.18
CCUGAGCAAUAUUACGACUG | -1.38 ± 0.16 | -1.25 ± 0.19
CUAUAGCAAUAUUACGUGGA | -2.83 ± 0.19 | -2.4 ± 0.27
GCCGAGCAAUAUUACGUCCG | -3.69 ± 0.28 | -2.87 ± 0.29
GGAUAGCAAUAUUACGUGGG | – | -0.24 ± 0.16
GUGUAGCAAUAUUACGAGAC | -3.58 ± 0.42 | -2.4 ± 0.16
AAACAGCAAUAUUACGACGC | -1.43 ± 0.081 | -0.718 ± 0.096
GGAUAGCAAUAUUACGAGUU | -1.59 ± 0.1 | -1.64 ± 0.14
ACGUAGCAAUAUUACGCGGG | -2.32 ± 0.12 | -0.863 ± 0.11
GCGUAGCAAUAUUACGGAGG | -3.61 ± 0.23 | -1.98 ± 0.18
UGUAAGCAAUAUUACGAGCG | 0.195 ± 0.1 | 0.758 ± 0.14
CGUAAGCAAUAUUACGUACG | -3.57 ± 0.25 | -1.59 ± 0.23
CAUGAGCAAUAUUACGGGUC | -2.75 ± 0.25 | -2.75 ± 0.27
UGAUAGCAAUAUUACGACGA | -0.476 ± 0.16 | 0.0569 ± 0.18
ACCGAGCAAUAUUACGGCAA | -1.19 ± 0.12 | -1.48 ± 0.12
AACAAGCAAUAUUACGUUGU | -2.17 ± 0.074 | -2.39 ± 0.13
AUCUAGCAAUAUUACGACGA | -0.367 ± 0.12 | -0.44 ± 0.12
AUAUAGCAAUAUUACGCUUU | -2.12 ± 0.41 | -1.34 ± 0.31
GCCUAGCAAUAUUACGUACA | -2.54 ± 0.14 | -1.7 ± 0.13
ACAAAGCAAUAUUACGUCAU | -3.08 ± 0.12 | -2.4 ± 0.14
CGUAAGCAAUAUUACGGCAA | -2.37 ± 0.25 | -1.68 ± 0.28

Sequence | self-splicing fitness (ln) (30 °C) | self-splicing fitness (ln) (37 °C)
CUGGAGCAAUAUUACGUGUG | -1.53 ± 0.11 | -0.75 ± 0.13
GCCUAGCAAUAUUACGGAAC | -0.183 ± 0.091 | 0.0968 ± 0.16
CACCAGCAAUAUUACGCUGC | -4.19 ± 0.22 | -2 ± 0.16
ACUUAGCAAUAUUACGGCAG | -1.6 ± 0.092 | -0.759 ± 0.12
GGUUAGCAAUAUUACGAUGU | -0.65 ± 0.14 | -0.087 ± 0.15
UAUUAGCAAUAUUACGUAUC | -3.31 ± 0.24 | -2.47 ± 0.29
AAGAAGCAAUAUUACGAACA | -1.06 ± 0.16 | -0.0339 ± 0.16
GAGCAGCAAUAUUACGAGGU | -4.1 ± 0.33 | -1.65 ± 0.15
GCCUAGCAAUAUUACGUGUG | -1.85 ± 0.057 | -0.937 ± 0.065
GGAUAGCAAUAUUACGAUUU | 0.317 ± 0.072 | 0.459 ± 0.09
GCAUAGCAAUAUUACGGAUU | -2.81 ± 0.11 | -1.29 ± 0.097
CCGUAGCAAUAUUACGAUGG | -3.58 ± 0.2 | -3.38 ± 0.26
AACGAGCAAUAUUACGUGGU | -4.57 ± 0.27 | -2.94 ± 0.17
UCCGAGCAAUAUUACGAAAG | -3.3 ± 0.33 | -2.65 ± 0.32
ACGUAGCAAUAUUACGUGUA | -2.51 ± 0.14 | -2.2 ± 0.14
ACAAAGCAAUAUUACGACAC | -1.54 ± 0.084 | -0.962 ± 0.1
GGAAAGCAAUAUUACGGAUU | -1.93 ± 0.085 | -0.946 ± 0.11
AAUAAGCAAUAUUACGGGUG | -1.59 ± 0.12 | -1.04 ± 0.11
CUGCAGCAAUAUUACGGCAG | -2.63 ± 0.22 | -2.27 ± 0.2
GUCUAGCAAUAUUACGGUGA | -2.81 ± 0.25 | -0.385 ± 0.21
GAGGAGCAAUAUUACGAGCU | – | -1.77 ± 0.47
UAGCAGCAAUAUUACGCCAA | -1.78 ± 0.12 | -0.98 ± 0.1
CACAAGCAAUAUUACGGACA | -2.34 ± 0.12 | -2.29 ± 0.12
CGAAAGCAAUAUUACGUAUC | -3.76 ± 0.2 | -3.21 ± 0.23
CGGUAGCAAUAUUACGUCGC | -3.35 ± 0.27 | -2.14 ± 0.22

Sequence | self-splicing fitness (ln) (30 °C) | self-splicing fitness (ln) (37 °C)
GUUGAGCAAUAUUACGAGUG | -2.98 ± 0.19 | -3.28 ± 0.28
AAGAAGCAAUAUUACGUCUA | -0.234 ± 0.066 | -0.565 ± 0.098
ACGGAGCAAUAUUACGGGAC | -2.93 ± 0.39 | -2.69 ± 0.36
ACGUAGCAAUAUUACGAAAC | -2.02 ± 0.45 | -2.26 ± 0.4
UAAGAGCAAUAUUACGUUCA | -1.29 ± 0.13 | -0.735 ± 0.14
UGUGAGCAAUAUUACGUAGC | -4.22 ± 0.42 | -1.65 ± 0.29
CAACAGCAAUAUUACGAGCA | -2.97 ± 0.15 | -1.01 ± 0.11
ACUAAGCAAUAUUACGAUAU | -1.39 ± 0.12 | -2.28 ± 0.16
AUUCAGCAAUAUUACGAGCU | -1.21 ± 0.14 | -0.997 ± 0.17
GGUUAGCAAUAUUACGUUCU | -0.833 ± 0.042 | -0.236 ± 0.052
CCUCAGCAAUAUUACGGUGC | -2.28 ± 0.15 | -2.77 ± 0.48
CUCUAGCAAUAUUACGCCGC | – | -3.15 ± 0.43
CAAUAGCAAUAUUACGUGGA | -3.29 ± 0.25 | -2.92 ± 0.22
GUCGAGCAAUAUUACGUUCU | -1.32 ± 0.15 | 0.217 ± 0.13
CCAGAGCAAUAUUACGCGGC | -3.88 ± 0.39 | -2.96 ± 0.24
CAUCAGCAAUAUUACGUGAU | -2.78 ± 0.078 | -0.987 ± 0.086
GAAAAGCAAUAUUACGCGGA | -2.25 ± 0.14 | -0.603 ± 0.13
AAGAAGCAAUAUUACGGAUA | -1.67 ± 0.1 | -1.38 ± 0.12
CAUGAGCAAUAUUACGUCCG | -0.682 ± 0.079 | -0.331 ± 0.1
ACUAAGCAAUAUUACGCCAG | -0.955 ± 0.14 | -0.843 ± 0.2
CACUAGCAAUAUUACGUACU | -2.87 ± 0.16 | -2.81 ± 0.19
GCCGAGCAAUAUUACGUUGA | -3 ± 0.16 | -2.88 ± 0.2

Source: the supplement of paper PMC7877785
